In patent US20240124890A1:

Molecular target: activated human plasma kallikrein (Enzyme Research Laboratories) (human) (UniProt P03952)
Assay: cell-based or functional assay

Chain of UniProt P03952 (P03952 20-638 limits assumed): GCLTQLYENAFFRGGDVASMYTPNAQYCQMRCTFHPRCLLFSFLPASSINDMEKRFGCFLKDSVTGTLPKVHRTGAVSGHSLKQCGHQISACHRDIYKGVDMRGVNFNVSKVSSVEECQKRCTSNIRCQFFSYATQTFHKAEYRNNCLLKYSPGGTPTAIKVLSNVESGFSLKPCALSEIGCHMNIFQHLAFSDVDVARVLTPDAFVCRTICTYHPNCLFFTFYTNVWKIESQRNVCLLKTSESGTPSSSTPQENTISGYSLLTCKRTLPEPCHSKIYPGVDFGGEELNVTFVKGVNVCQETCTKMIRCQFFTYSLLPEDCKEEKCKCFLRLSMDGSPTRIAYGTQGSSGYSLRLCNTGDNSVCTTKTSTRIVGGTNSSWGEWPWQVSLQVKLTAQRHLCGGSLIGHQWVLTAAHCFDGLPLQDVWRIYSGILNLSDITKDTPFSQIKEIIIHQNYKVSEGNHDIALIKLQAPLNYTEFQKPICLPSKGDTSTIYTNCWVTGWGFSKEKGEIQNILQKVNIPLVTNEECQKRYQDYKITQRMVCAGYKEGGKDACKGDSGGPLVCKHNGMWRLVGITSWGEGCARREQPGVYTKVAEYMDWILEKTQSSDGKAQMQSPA

“Therapeutic antibody (GenScript), human anti-pKal antibody (lanadelumab)” gave a suppression of pKal activity (PFR-AMC fluorogenic kinetic enzymatic assay) of 0.1 nM.
